Test results reported in patent US20160368960A1.
Starred links: 1 amine or outer side, 2 acyl side, 3 side chain; linkers in the order of their positions; H or OH if unused. Non-standard residues stand in square brackets, D forms with d. Groups on a side chain read outwards from the residue. *: point of attachment. C20 diacid = O=C(O)CCCCCCCCCCCCCCCCCCC(=O)*; C18 diacid = O=C(O)CCCCCCCCCCCCCCCCC(=O)*; γGlu = O=C(O)[C@H](CCC(=O)[*:2])N[*:1]; AEEA = NCCOCCOCC(=O)O; Aib = CC(C)(N)C(=O)O

T1: rat GLP-1-R (rat), P32301
T1 chain: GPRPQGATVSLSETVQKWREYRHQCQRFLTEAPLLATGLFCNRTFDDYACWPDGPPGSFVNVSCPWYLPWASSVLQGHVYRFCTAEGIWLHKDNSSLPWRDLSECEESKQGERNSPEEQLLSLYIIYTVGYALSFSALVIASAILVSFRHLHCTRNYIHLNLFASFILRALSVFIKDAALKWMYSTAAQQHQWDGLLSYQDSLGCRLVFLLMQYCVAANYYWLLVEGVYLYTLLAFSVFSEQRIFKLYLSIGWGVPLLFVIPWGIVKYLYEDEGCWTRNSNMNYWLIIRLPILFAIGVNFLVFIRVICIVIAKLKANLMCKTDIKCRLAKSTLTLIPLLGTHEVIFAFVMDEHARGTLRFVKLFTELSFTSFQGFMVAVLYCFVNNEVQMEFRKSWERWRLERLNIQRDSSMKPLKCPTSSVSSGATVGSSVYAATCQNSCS

T2: human GLP-1 receptor (human), P43220
T2 chain: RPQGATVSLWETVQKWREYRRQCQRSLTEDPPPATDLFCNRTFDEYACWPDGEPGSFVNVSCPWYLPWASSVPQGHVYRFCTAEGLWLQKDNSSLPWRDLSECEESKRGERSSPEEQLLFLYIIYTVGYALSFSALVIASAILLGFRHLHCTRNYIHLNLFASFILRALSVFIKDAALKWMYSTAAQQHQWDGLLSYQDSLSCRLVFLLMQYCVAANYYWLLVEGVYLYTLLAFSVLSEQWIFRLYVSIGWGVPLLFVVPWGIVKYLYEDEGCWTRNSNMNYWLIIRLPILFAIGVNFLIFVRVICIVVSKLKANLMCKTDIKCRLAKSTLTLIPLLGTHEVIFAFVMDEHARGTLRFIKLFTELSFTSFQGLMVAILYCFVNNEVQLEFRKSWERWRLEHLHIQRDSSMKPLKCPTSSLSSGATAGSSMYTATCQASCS


Tests used:
[1] = molecular target: human Gcg receptor (human), P47871; experiment: cell-based or functional assay
human Gcg receptor (human), P47871, sequence (P47871 26-477): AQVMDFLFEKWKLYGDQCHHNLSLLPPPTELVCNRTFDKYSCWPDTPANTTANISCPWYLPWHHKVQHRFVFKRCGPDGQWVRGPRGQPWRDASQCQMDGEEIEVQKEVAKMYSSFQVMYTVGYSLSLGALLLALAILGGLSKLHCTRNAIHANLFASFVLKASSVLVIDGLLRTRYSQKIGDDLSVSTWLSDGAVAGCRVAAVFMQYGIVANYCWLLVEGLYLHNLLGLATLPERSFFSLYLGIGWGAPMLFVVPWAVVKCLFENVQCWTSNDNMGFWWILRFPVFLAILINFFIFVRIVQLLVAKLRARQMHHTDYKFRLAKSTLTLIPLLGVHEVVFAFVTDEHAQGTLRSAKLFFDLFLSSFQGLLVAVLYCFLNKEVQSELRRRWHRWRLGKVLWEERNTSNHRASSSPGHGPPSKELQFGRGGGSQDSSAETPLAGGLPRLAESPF

[2] = molecular target: T1, rat GLP-1-R (rat), P32301; experiment: cell-based or functional assay
[3] = molecular target: T2, human GLP-1 receptor (human), P43220; experiment: cell-based or functional assay
[4] = molecular target: human Gcg receptor (human), P47871; experiment: radioligand competition SPA, displacement of I-125 Gcg, hGcg-R 293HEK membranes
[5] = molecular target: T2, human GLP-1 receptor (human), P43220; experiment: radioligand competition SPA, displacement of I-125 GLP-1, hGLP-1-R 293HEK membranes

Binder	EC50 (nM), cAMP production in primary human hepatocytes [1]	EC50, cAMP production [1]	EC50 (nM), cAMP production in INS1 832-3 cells [2]	Emax (%), cAMP production in INS1 832-3 cells [2]	EC50, cAMP production [3]	Emax, cAMP production [3]	Ki [4]	Ki [5]	Emax, cAMP production [1]
H-H[Aib]QGTFTSDYSKYLDEKKAK([AEEA-AEEA-γGlu-γGlu-C20 diacid])EFVEWLLSGGPSSG-NH2 (SMILES CC(C)C[C@H](NC(=O)[C@H](CC(C)C)NC(=O)[C@H](Cc1c[nH]c2ccccc12)NC(=O)[C@H](CCC(=O)O)NC(=O)[C@@H](NC(=O)[C@H](Cc1ccccc1)NC(=O)[C@H](CCC(=O)O)NC(=O)[C@H](CCCCNC(=O)COCCOCCNC(=O)COCCOCCNC(=O)CC[C@H](NC(=O)CC[C@H](NC(=O)CCCCCCCCCCCCCCCCCCC(=O)O)C(=O)O)C(=O)O)NC(=O)[C@H](C)NC(=O)[C@H](CCCCN)NC(=O)[C@H](CCCCN)NC(=O)[C@H](CCC(=O)O)NC(=O)[C@H](CC(=O)O)NC(=O)[C@H](CC(C)C)NC(=O)[C@H](Cc1ccc(O)cc1)NC(=O)[C@H](CCCCN)NC(=O)[C@H](CO)NC(=O)[C@H](Cc1ccc(O)cc1)NC(=O)[C@H](CC(=O)O)NC(=O)[C@H](CO)NC(=O)[C@@H](NC(=O)[C@H](Cc1ccccc1)NC(=O)[C@@H](NC(=O)CNC(=O)[C@H](CCC(N)=O)NC(=O)C(C)(C)NC(=O)[C@@H](N)Cc1c[nH]cn1)[C@@H](C)O)[C@@H](C)O)C(C)C)C(=O)N[C@@H](CO)C(=O)NCC(=O)NCC(=O)N1CCC[C@H]1C(=O)N[C@@H](CO)C(=O)N[C@@H](CO)C(=O)NCC(N)=O) [Compound 4]	–	68.8 nM	–	–	106 nM	85.2%	27.4 nM	20.2 nM	116%
H-H[Aib]QGTFTSDYSKYLDEKKAK([AEEA-AEEA-γGlu-γGlu-C18 diacid])EFVEWLLSGGPSSG-NH2 (SMILES CC(C)C[C@H](NC(=O)[C@H](CC(C)C)NC(=O)[C@H](Cc1c[nH]c2ccccc12)NC(=O)[C@H](CCC(=O)O)NC(=O)[C@@H](NC(=O)[C@H](Cc1ccccc1)NC(=O)[C@H](CCC(=O)O)NC(=O)[C@H](CCCCNC(=O)COCCOCCNC(=O)COCCOCCNC(=O)CC[C@H](NC(=O)CC[C@H](NC(=O)CCCCCCCCCCCCCCCCC(=O)O)C(=O)O)C(=O)O)NC(=O)[C@H](C)NC(=O)[C@H](CCCCN)NC(=O)[C@H](CCCCN)NC(=O)[C@H](CCC(=O)O)NC(=O)[C@H](CC(=O)O)NC(=O)[C@H](CC(C)C)NC(=O)[C@H](Cc1ccc(O)cc1)NC(=O)[C@H](CCCCN)NC(=O)[C@H](CO)NC(=O)[C@H](Cc1ccc(O)cc1)NC(=O)[C@H](CC(=O)O)NC(=O)[C@H](CO)NC(=O)[C@@H](NC(=O)[C@H](Cc1ccccc1)NC(=O)[C@@H](NC(=O)CNC(=O)[C@H](CCC(N)=O)NC(=O)C(C)(C)NC(=O)[C@@H](N)Cc1c[nH]cn1)[C@@H](C)O)[C@@H](C)O)C(C)C)C(=O)N[C@@H](CO)C(=O)NCC(=O)NCC(=O)N1CCC[C@H]1C(=O)N[C@@H](CO)C(=O)N[C@@H](CO)C(=O)NCC(N)=O) [Compound 3]	–	15.3 nM	–	–	34.3 nM	105%	37.3 nM	8.68 nM	104%

Binders with a lower Ki [4], results first:

EC50 (nM), cAMP production in primary human hepatocytes [1]	EC50, cAMP production [1]	EC50 (nM), cAMP production in INS1 832-3 cells [2]	Emax (%), cAMP production in INS1 832-3 cells [2]	EC50, cAMP production [3]	Emax, cAMP production [3]	Ki [4]	Ki [5]	Emax, cAMP production [1]	Binder
159 nM	26.5 nM	62 nM	104%	83.1 nM	107%	17.7 nM	28.6 nM	–	H-H[Aib]QGTFTSDYSKYLDEKKAK([AEEA-AEEA-γGlu-C20 diacid])EFVEWLLEGGPSSG-NH2 [Compound 2]
99.9 nM	7.21 nM	26.1 nM	112%	23.9 nM	104%	14.6 nM	23 nM	–	H-H[Aib]QGTFTSDYSKYLDEKKAK([AEEA-AEEA-γGlu-C18 diacid])EFVEWLLEGGPSSG-NH2 (SMILES CC(C)C[C@H](NC(=O)[C@H](CC(C)C)NC(=O)[C@H](Cc1c[nH]c2ccccc12)NC(=O)[C@H](CCC(=O)O)NC(=O)[C@@H](NC(=O)[C@H](Cc1ccccc1)NC(=O)[C@H](CCC(=O)O)NC(=O)[C@H](CCCCNC(=O)COCCOCCNC(=O)COCCOCCNC(=O)CC[C@H](NC(=O)CCCCCCCCCCCCCCCCC(=O)O)C(=O)O)NC(=O)[C@H](C)NC(=O)[C@H](CCCCN)NC(=O)[C@H](CCCCN)NC(=O)[C@H](CCC(=O)O)NC(=O)[C@H](CC(=O)O)NC(=O)[C@H](CC(C)C)NC(=O)[C@H](Cc1ccc(O)cc1)NC(=O)[C@H](CCCCN)NC(=O)[C@H](CO)NC(=O)[C@H](Cc1ccc(O)cc1)NC(=O)[C@H](CC(=O)O)NC(=O)[C@H](CO)NC(=O)[C@@H](NC(=O)[C@H](Cc1ccccc1)NC(=O)[C@@H](NC(=O)CNC(=O)[C@H](CCC(N)=O)NC(=O)C(C)(C)NC(=O)[C@@H](N)Cc1c[nH]cn1)[C@@H](C)O)[C@@H](C)O)C(C)C)C(=O)N[C@@H](CCC(=O)O)C(=O)NCC(=O)NCC(=O)N1CCC[C@H]1C(=O)N[C@@H](CO)C(=O)N[C@@H](CO)C(=O)NCC(N)=O) [Compound 1]
